In patent US20150361176A1 (GlaxoSmithKline, published 2015):
Residue numbers refer to the chain shown, from its start. Numbers in names are those of the source. Where “and” joins values, the source holds several entries; their conditions need not be identical. Equal entries are not always repeated. Blank lines part the entries; values can stand above or below the binder they belong to.

Key:
[1] = target: T1, human TGF-βRII on cells (SBE-bla HEK 293T cells; A549 cells) (human, UniProt P37173 23-567); assay: cell-based or functional assay
[2] = target: T2, mouse TGF-βRII on MC3T3-E1 cells (mouse osteoblasts) (mouse, UniProt Q62312 24-567); assay: cell-based or functional assay
T2 sequence (looked up): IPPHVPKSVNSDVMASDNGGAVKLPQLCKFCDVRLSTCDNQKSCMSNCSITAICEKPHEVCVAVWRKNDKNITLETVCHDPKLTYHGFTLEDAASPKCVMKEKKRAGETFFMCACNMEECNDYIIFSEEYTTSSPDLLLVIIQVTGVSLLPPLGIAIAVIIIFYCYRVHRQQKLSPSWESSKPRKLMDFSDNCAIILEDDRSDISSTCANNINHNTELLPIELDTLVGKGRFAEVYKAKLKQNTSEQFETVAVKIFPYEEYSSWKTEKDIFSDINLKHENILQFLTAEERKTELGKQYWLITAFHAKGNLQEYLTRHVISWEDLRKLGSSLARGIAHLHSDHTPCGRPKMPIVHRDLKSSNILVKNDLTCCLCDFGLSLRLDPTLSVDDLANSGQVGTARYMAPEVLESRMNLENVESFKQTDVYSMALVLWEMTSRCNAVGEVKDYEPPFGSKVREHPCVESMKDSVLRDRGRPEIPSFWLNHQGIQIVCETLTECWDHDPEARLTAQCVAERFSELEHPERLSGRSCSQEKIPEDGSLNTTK

[3] = target: T1, human TGF-βRII on cells (SBE-bla HEK …); assay: cell-based or functional assay; remark: listed apart in the source
[4] = target: T1, human TGF-βRII on cells (SBE-bla HEK …); assay: cell-based or functional assay; remark: listed apart in the source
[5] = target: T3, recombinant human TGF-β RII/Fc chimera protein (human, UniProt P37173 24-159); assay: SPR Biacore, purified dAb; antigen taken as human TGF-β RII/Fc
T3 construct: range 24-159; Made in HEK-F cells; Biotinylated where it was put on SA chips, otherwise captured by anti-human IgG; also called human TGFbRII/Fc; hRII-Fc; not shown: Fc region of human IgG1

[6] = target: T3, recombinant human TGF-β RII/Fc chimera …; assay: SPR Biacore, against parent DOM23h-855
[7] = target: T3, recombinant human TGF-β RII/Fc chimera …; assay: SPR Biacore, against parent DOM23h-843
[8] = target: T3, recombinant human TGF-β RII/Fc chimera …; assay: SPR Biacore, against parent DOM23h-439
[9] = target: T3, recombinant human TGF-β RII/Fc chimera …; assay: SPR Biacore T100, human TGFbRII-FC, 1:1 model
Procedure: Triplet or doped libraries in separate CDR1, CDR2 and CDR3 pools were subjected to rounds of phage selection as described above against either biotinylated human TGF-β RII/Fc antigen over 4 rounds in concentrations of 10 nM, 1 nM, 100 pM and 20 pM respectively, or two rounds of selection using 20 pM followed by 2 pM antigen. Inserts from phage selections were cloned into the pDOM10 expression vector and supernatants with off rates improved over parent were selected for further study. Domain antibodies were expressed and purified their affinity and bioactivity against human TGF-β RII/Fc antigen tested on the BIACORE™ T100 and in the Cell sensor assay described above (data not shown).
BIACORE™ analysis was carried out using a capture surface on a CM4 chip. Anti-human IgG was used as the capturing agent and coupled to a CM4 biosensor chip by primary amine coupling. The Antigen molecule fused to the human Fc was captured on this immobilised surface to a level from 250 to 300 resonance units and defined concentrations of Domain antibodies diluted in running buffer were passed over this captured surface. An injection of buffer over the captured antigen surface was used for double referencing. […] All runs were carried out at 25° C. using HBS-EP buffer as running buffer. Data were generated using the BIACORE™ T100 and fitted to the 1:1 binding model inherent to the software.

[10] = target: T3, recombinant human TGF-β RII/Fc chimera …; assay: SPR Biacore, human TGFbRII-FC, 1:1 model (poor fit, ranking only)
[11] = target: T3, recombinant human TGF-β RII/Fc chimera …; assay: SPR Biacore
[12] = target: T4, recombinant mouse TGF-β RII/Fc chimera protein (mouse; human, UniProt Q62312-1 24-184); assay: SPR Biacore
T4 construct: Residue limits are printed only for the human receptor; also called mouse TGFbRII-Fc; mRII-Fc; not shown: Fc region; the assays speak of antigen fused to the human Fc
T4 sequence (looked up): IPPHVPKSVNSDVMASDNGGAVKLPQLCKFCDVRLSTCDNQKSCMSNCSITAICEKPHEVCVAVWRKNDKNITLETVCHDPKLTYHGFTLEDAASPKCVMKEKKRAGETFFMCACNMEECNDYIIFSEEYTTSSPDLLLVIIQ

[13] = target: T5, cynomolgus TGF-β RII/Fc (cynomolgus); assay: SPR Biacore
T5 construct: extracellular domain; also called Cyno TGFBRII; Cyno TGFbRII

[14] = target: T1, human TGF-βRII on cells (SBE-bla HEK …); assay: cell-based or functional assay; remark: listed apart in the source
[15] = target: T2, mouse TGF-βRII on MC3T3-E1 cells (mouse …); assay: cell-based or functional assay; remark: listed apart in the source
[16] = target: T3, recombinant human TGF-β RII/Fc chimera …; assay: SPR Biacore, human TGFbRII-FC, 1:1 model

T1 sequence (P37173 23-567): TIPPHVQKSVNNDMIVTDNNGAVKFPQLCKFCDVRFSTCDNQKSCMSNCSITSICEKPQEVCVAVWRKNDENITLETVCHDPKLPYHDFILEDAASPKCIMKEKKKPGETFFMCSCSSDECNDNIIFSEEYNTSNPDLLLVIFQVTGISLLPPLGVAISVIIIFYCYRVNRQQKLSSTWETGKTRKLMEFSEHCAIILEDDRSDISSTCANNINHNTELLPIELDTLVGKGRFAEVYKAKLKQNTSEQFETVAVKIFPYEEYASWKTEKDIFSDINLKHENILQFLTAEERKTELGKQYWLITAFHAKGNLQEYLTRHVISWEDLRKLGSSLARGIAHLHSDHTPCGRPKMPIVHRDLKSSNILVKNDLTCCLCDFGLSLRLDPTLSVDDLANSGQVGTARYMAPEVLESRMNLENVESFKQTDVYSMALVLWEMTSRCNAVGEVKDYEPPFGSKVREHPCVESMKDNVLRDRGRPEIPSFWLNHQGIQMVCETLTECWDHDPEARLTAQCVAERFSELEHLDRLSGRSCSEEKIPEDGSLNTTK
T3 sequence (P37173 24-159 limits assumed, change not shown): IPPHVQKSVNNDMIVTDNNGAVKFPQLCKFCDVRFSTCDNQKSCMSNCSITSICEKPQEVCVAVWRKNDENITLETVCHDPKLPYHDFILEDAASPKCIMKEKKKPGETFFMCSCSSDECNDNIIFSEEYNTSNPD

B2: DOM23h-855 (VHH)
VHH: EVQLLESGGGLVQPGGSLRLSCAASGFTFENTSMGWVRQAPGKGLEWVSRIDPKGSHTYYADSVKGRFTISRDNSKNTLYLQMNSLRAEDTAVYYCAKQRELGKSHFDYWGQGTLVTVSS
notes: human VH domain antibody (dAb), naive lead; parent of DOM23h-855-21; not shown: C-terminal FLAG tag from vector pDOM10
IC50 nM, Mean (SBE-bla HEK 293T cell sensor assay, h2) [3]: > 4470 nM
Mean IC50 (nM), SBE-bla HEK 293T Cell Sensor assay (h2) [4]: > 25000 nM
Kd [5]: 941 nM
koff [5]: 0.315 s⁻¹
kon [5]: 335000 M⁻¹ s⁻¹

B4: DOM23h-843 (VHH)
VHH: EVQLLESGGGLVQPGGSLRLSCAASGFTFDQDRMWWVRQAPGKGLEWVSAIESGGHRTYYADSVKGRFTISRDNSKNTLYLQMNSLRAEDTAVYYCAKQNESGRSGFDYWGQGTLVTVSS
notes: human VH domain antibody (dAb), naive lead; parent of DOM23h-843-13; not shown: C-terminal FLAG tag from vector pDOM10
IC50 nM, Mean (SBE-bla HEK 293T cell sensor assay, h2) [3]: > 9010 nM
Mean IC50 (nM), SBE-bla HEK 293T Cell Sensor assay (h2) [4]: 1950 nM
Kd [5]: 378 nM
koff [5]: 0.343 s⁻¹
kon [5]: 905000 M⁻¹ s⁻¹

B8: DOM23h-271-7 (VHH)
VHH: EVQLLESGGGLVQPGGSLRLSCAASGFTFTEYRMWWVRQAPGKGLEWVSAIEPIGNRTYYADSVKGRFTISRDNSKNTLYLQMNSLRAEDTAVYYCAKQIPGRKWTANSRFDYWGQGTLVTVSS
notes: human VH dAb; also called 271-7a; 271-7b
Kd [9]: 13.8 nM and 18.4 nM
koff [9]: 0.0419 s⁻¹ and 0.0445 s⁻¹
kon [9]: 3.04e+06 M⁻¹ s⁻¹ and 2.42e+06 M⁻¹ s⁻¹
Kd [10]: 9.49 nM
koff [10]: 0.051 s⁻¹
kon [10]: 5.37e+06 M⁻¹ s⁻¹

B9: DOM23h-271-39 (VHH)
VHH: B8 VHH with D62R, K65D, I100M, R103Q, T106M, N108K
notes: human VH dAb; also called DOM23h-271-22 plus D61R K64D; RD
Kd [11]: 0.0149 nM
Kd [12]: 1.78 nM
Kd [13]: 0.024 nM
Human Cell sensor IC50 [14]: 1.17 nM
Mouse 3T3 Luciferase assay IC50 [15]: 11100 nM

B10: DOM23h-271-22 (VHH)
VHH: B8 VHH with I100M, R103Q, T106M, N108K
notes: human VH dAb from DNA display; expressed from pDOM13
Kd [11]: 0.202 nM
Kd [13]: 0.225 nM
Human Cell sensor IC50 [14]: 39 nM
Mouse 3T3 Luciferase assay IC50 [15]: > 17800 nM
Kd [16]: 0.286 nM
koff [16]: 0.000919 s⁻¹
kon [16]: 3.22e+06 M⁻¹ s⁻¹

B11: DOM23h-271-40 (VHH)
VHH: B8 VHH with D62R, K65F, I100M, R103Q, T106M, N108K
notes: human VH dAb; also called DOM23h-271-22 plus D61R K64F; RF
Kd [11]: 0.00999 nM
Kd [12]: 0.548 nM
Kd [13]: 0.0112 nM
Human Cell sensor IC50 [14]: 0.53 nM
Mouse 3T3 Luciferase assay IC50 [15]: 1200 nM

Other lines, results leading:

max % inhibition, Average (Human IL-11 release, h1) [1]: -2%
max % inhibition, Average (Mouse 3T3 cell assay, method m1) [2]: 44.9%
B1: DOM23m-71 (VHH, not shown: small tags and cut ends)
VHH: EVQLLESGGGLVQPGGSLRLSCAASGFTFMDYRMYWVRQAPGKGLEWVSGIDPTGLRTYYADSVKGRFTISRDNSKNTLYLQMNSLRAEDTAVYYCAKIKWGEMGSYKTFDYWGQGTLVTVSS

Mean IC50 (nM), SBE-bla HEK 293T Cell Sensor assay (h2) [4]: 18600 nM
KD Fold improvement [6]: 52.3 fold
ka Fold improvement [6]: 5.6 fold
kd Fold improvement [6]: 9.4 fold
Kd [5]: 18 nM
koff [5]: 0.0336 s⁻¹
kon [5]: 1.86e+06 M⁻¹ s⁻¹
B3: DOM23h-855-21 (VHH)
VHH: B2 VHH with A61T, H106Y
notes: human VH dAb, error-prone matured; expressed from pDOM13, tag not described

Mean IC50 (nM), SBE-bla HEK 293T Cell Sensor assay (h2) [4]: 540 nM
KD Fold improvement [7]: 91.7 fold
ka Fold improvement [7]: 5.6 fold
kd Fold improvement [7]: 16.2 fold
Kd [5]: 4.13 nM
koff [5]: 0.0211 s⁻¹
kon [5]: 5.11e+06 M⁻¹ s⁻¹
B5: DOM23h-843-13 (VHH)
VHH: B4 VHH with K98N, E101K
notes: as for B3

Mean IC50 (nM), SBE-bla HEK 293T Cell Sensor assay (h2) [4]: 3570 nM
Kd [5]: 24.2 nM
koff [5]: 0.0502 s⁻¹
kon [5]: 2.08e+06 M⁻¹ s⁻¹
B6: DOM23h-439 (VHH)
VHH: EVQLLESGGGLVQPGGSLRLSCAASGFTFGTEQMWWVRQAPGKGLEWVSRIDSPGGRTYYADSVKGRFTISRDNSKNTLYLQMNSLRAEDTAVYYCAKRHAAGVSGTYFDYWGQGTLVTVSS

Mean IC50 (nM), SBE-bla HEK 293T Cell Sensor assay (h2) [4]: 48 nM
KD Fold improvement [8]: 30.3 fold
ka Fold improvement [8]: 2.1 fold
kd Fold improvement [8]: 14.2 fold
Kd [5]: 0.799 nM
koff [5]: 0.00354 s⁻¹
kon [5]: 4.43e+06 M⁻¹ s⁻¹
B7: DOM23h-439-20 (VHH)
VHH: B6 VHH with W47F
notes: as for B3
